Where a chain is given by its changes, count along the chain named.
T1: CD24 (human, UniProt P25063 27-59)
T1 chain (looked up): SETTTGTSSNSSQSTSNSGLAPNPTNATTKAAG

B1: KH16 (antibody, mouse IgG2a, kappa, V domains shown)
VH: DVQLQESGPDLVKPSQSLSLTCTVTGYSITSGYTWHWIRQFPGNKLEWMGYIQYSGSTNYNPSLKSRISFTRDTSKNQFFLQLNSVTTEDTATYYCARGTTGGLDYWGQGTTLTVSS
VL: DIVMSQSPSSLTVSVGEKITMSCKSSQSLLYSSDQKNYLAWYQQNPGQSPKLLIYWASTKASGVPDRFTGSGSGTDFTLTISSVKAEDLAVYYCQQYYIYPLTFGSGTKLEIKR
B2: KH06 (antibody, V domains shown)
VH: DVQLQESGPDLVNPSQSLSLTCTVTGYSISRGYSWHWLRRFPGNKLEWMGFIHYSGTTNYNPSLKSRISFTRDTSKNQFFLQLNSLTTEDTATYYCLRGTDRSFDYWGQGTTLTVSS
VL: B1 VL with T12V, T20S, S33N, D34N, N45I, K60R, A61E
B3: KH02 (antibody, mouse IgG2a, kappa, V domains shown)
VH: DVQLQESGPDLVKPSHSLSLTCTVTGYSITRGYSWHWIRQFPGNKLEWMGYIHYSGSTNYNPSLKSRISFTRDTSKNQFFLNLTSLTSEDTATYYCSRGSTWAFDHWGQGTILTVSS
VL: B1 VL with T12A, S33N, D34N, N45I, W56L, K60R, A61E, Y98F, L102M, T103S
B4: KH12 (antibody, mouse IgG2a, kappa, V domains shown)
VH: B3 VH with L18F, S57N, I68F
VL: B1 VL with I19V, A40T, N45K, K60R, A61Y, L102F
B5: KH27 (antibody, mouse IgG2b, kappa, V domains shown)
VH: B1 VH with S31R, Y54F, N59K, I68F, F70I, G102T, G103A, T112S, L113V
VL: DIVMSQSPSSLAVSIGEKVTMNCQSSQSLLYSSNQKNYLVWYQQKPGQSPKLLIHWASTRESGVPDRFTGSGSGTDFTLTISSVKAEDLAVYYCQQYYIYPFTFGSGTKLEIKR
B6: KH01 (antibody, mouse IgG2a, kappa, V domains shown)
VH: DVQLQESGPDLVKPSQSLSLTCTVTGHSITRGYSWHWIRQFPGNKLEWMGYIHHRGTTNYNPSLKSRISFTRDTSKNQFFLQLNSLTTEDTATYFCSRGTNSAFDYWGQGTTLTVSS
VL: DIQMTQTTSSLSASLGDRVTISCRASQDISNYLNWYQQKPDGTVKLLIYYTSRLHSGVPSRFSGSGSGTDYSLTISNLEQEDIATYFCQQGNTLPHTFGGGTKLEIKR
B7: KH21 (antibody, mouse IgG2a, kappa, V domains shown)
VH: B6 VH
VL: B1 VL
B8: KH05 (antibody, mouse IgG2b, kappa, V domains shown)
VH: B6 VH with R31N, R55S, T57S, F95Y, S97L, N101D, S102R, A103S
VL: B1 VL with T12V, T20S, S33N, D34N, N45I, K60R, A61E
B9: KH33 (antibody, mouse IgG2a, kappa, V domains shown)
VH: B6 VH
VL: QIVLTQSPAIMSASPGEKVTMTCSASSSISYMHWYQQKPGTSPKRWIYDTSKLASGVPARFSGSGSGTSYSLTISSMEAEDAATYYCHQRSSYPCTFGGGTKLEIKR
B10: KH29 (antibody, mouse IgG2b, kappa, V domains shown)
VH: B6 VH with S66N
VL: B5 VL with I15V, M21L, Q24K, S33K, L39S, V40A, H55Y, F102L, S106A, I112L
B11: KH25 (antibody, mouse IgG2b, kappa, V domains shown)
VH: B6 VH with T57S
VL: B1 VL with T12V, T20S, S33N, D34N, N45I, K60R, A61E
B12: KH19 (antibody, mouse IgG2b, kappa, V domains shown)
VH: B6 VH with R31N, R55S, T57S, F95Y, S97L, N101D, S102R, A103S
VL: B5 VL with I15V, M21V, N22S, Q24K, N34D, V40T, H55Y, S71G, K85R, Y98F
B13: KH03 (antibody, mouse IgG2a, kappa, V domains shown)
VH: B6 VH with T57S
VL: B1 VL with K60R, V91I
B14: KH04 (antibody, mouse IgG2a, kappa, V domains shown)
VH: B6 VH with T57S, S97L
VL: B1 VL
B15: KH14 (antibody, mouse IgG2b, kappa, V domains shown)
VH: B6 VH with R31N, R55S, T57S, F95Y, S97L, N101D, S102R, A103S
VL: B5 VL with I15V, K18N, V19I, N22T, Q24K, S33N, V40T, K45N, H55Y
B16: KH10 (antibody, mouse IgG2a, kappa, V domains shown)
VH: B6 VH with T57S
VL: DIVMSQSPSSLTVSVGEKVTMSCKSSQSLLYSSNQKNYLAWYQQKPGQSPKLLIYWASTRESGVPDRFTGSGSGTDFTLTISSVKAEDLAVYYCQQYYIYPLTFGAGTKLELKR
B17: KH07 (antibody, mouse IgG2b, kappa, V domains shown)
VH: DVQLQESGPDLEKPSQSLSLTCTVTGYSITRGYSWHWIRQFPGNKLEWMGYIHYSGSTKYNPSLKSRVSFTRDTSKNQFFLQLNSLSPEDTATYYCSRGSDRAFDYWGQGTTLTVSS
VL: B5 VL with S33N

Experiments:
CD24 [1] = target: T1, CD24; experiment: cell-based or functional assay
CD24 [2] = target: T1, CD24; experiment: cell-based or functional assay

Binder	Phagocytosis rate (%) (MCF-7 tumor cells by human PBMC-derived M2 macrophages, antibody 5 µg/ml) (CD24 [1])	Phagocytosis rate % (A549 tumor cells by human PBMC-derived M2 macrophages, antibody 5 µg/ml) (CD24 [2]) [%]
B1	6.8	12.3
B2	4.3	10.9
B3	3	10.3
B4		11.1
B5		10.6
B6	6.2	11.8
B7		10.2
B8	3.2	10.4
B9		18.3
B10		8.95
B11	6.5	11
B12		10.3
B13	3.6	11.9
B14		12.8
B15	3.4	11.2
B16		12.1
B17		10.1
